In the RNAGym collection of RNA variant scans (doi:10.1101/gr.219683.116):

B1: mRNA-splicing (parent)
chain: AGUUGCUGCUGGGAGCUCCAGCACAGUGAAAUGGACAGAAGGGCAGAGCAA

Variants of: B1
Assay: exon inclusion enrichment index; higher = more inclusion; WT1 exon 5 minigene, HEK293

Variant | exon inclusion enrichment index
AGUUACCACCGGGAUGUCCAGCACAGUGAAAUGGACAGAAGGGCAGAGCAA [G5A U7C G8A U10C G15U C16G] | 1.74
AGUUACCACCGGGAUAUCCAGCACAGUGAAAUGGACAGAAGGGCAGAGCAA [G5A U7C G8A U10C G15U C16A] | 1.58
AGUUACCACCGGGAUUUCCAGCACAGUGAAAUGGACAGAAGGGCAGAGCAA [G5A U7C G8A U10C G15U C16U] | 1.86
AGUUACCACCGGGACGUCCAGCACAGUGAAAUGGACAGAAGGGCAGAGCAA [G5A U7C G8A U10C G15C C16G] | 2.13
AGUUACCACCGGGACUUCCAGCACAGUGAAAUGGACAGAAGGGCAGAGCAA [G5A U7C G8A U10C G15C C16U] | 2.28
AGUUACCACCGGGACAUCCAGCACAGUGAAAUGGACAGAAGGGCAGAGCAA [G5A U7C G8A U10C G15C C16A] | 1.77
AGUUACCACCGGGAGCUCCAUGACAGUGAAAUGGACAGAAGGGCAGAGCAA [G5A U7C G8A U10C G21U C22G] | 2.27
AGUUACCACCGGGAGCUCCAUUACAGUGAAAUGGACAGAAGGGCAGAGCAA [G5A U7C G8A U10C G21U C22U] | 0.857
AGUUACCACCGGGAGCUCCAUAACAGUGAAAUGGACAGAAGGGCAGAGCAA [G5A U7C G8A U10C G21U C22A] | 0.951
AGUUACCACCUGGAGCUCCAGCACAGUGAAAUGGACAGAAGGGCAGAGCAA [G5A U7C G8A U10C G11U] | 1.6
AGUUACCACCGGGAGCUCCAGCACACAGAAAUGGACAGAAGGGCAGAGCAA [G5A U7C G8A U10C G26C U27A] | 2.48
AGUUACCACCGGGAGCUCCAGCACACCGAAAUGGACAGAAGGGCAGAGCAA [G5A U7C G8A U10C G26C U27C] | 3.74
AGUUACCACCGGGAGCUCCAGCACACGGAAAUGGACAGAAGGGCAGAGCAA [G5A U7C G8A U10C G26C U27G] | 3.53
AGUUACCACCGGGAGCUCCACAACAGUGAAAUGGACAGAAGGGCAGAGCAA [G5A U7C G8A U10C G21C C22A] | 2.27
AGUUACCACCGGGAGCUCCACUACAGUGAAAUGGACAGAAGGGCAGAGCAA [G5A U7C G8A U10C G21C C22U] | 2.19
AGUUACCACCGGGAGCUCCACGACAGUGAAAUGGACAGAAGGGCAGAGCAA [G5A U7C G8A U10C G21C C22G] | 3.61
AGUUACCACCGGGAAUUCCAGCACAGUGAAAUGGACAGAAGGGCAGAGCAA [G5A U7C G8A U10C G15A C16U] | 1.55
AGUUACCACCGGGAAAUCCAGCACAGUGAAAUGGACAGAAGGGCAGAGCAA [G5A U7C G8A U10C G15A C16A] | 1.46
AGUUACCACCGGGAAGUCCAGCACAGUGAAAUGGACAGAAGGGCAGAGCAA [G5A U7C G8A U10C G15A C16G] | 1.31
AGUUACCACCGGGAGCUCCAGCACAGUGAAAUUCACAGAAGGGCAGAGCAA [G5A U7C G8A U10C G33U G34C] | 0.815
AGUUACCACCGGGAGCUCCAGCACAGUGAAAUUAACAGAAGGGCAGAGCAA [G5A U7C G8A U10C G33U G34A] | 0.441
AGUUACCACCGGGAGCUCCAGCACAGUGAAAUUUACAGAAGGGCAGAGCAA [G5A U7C G8A U10C G33U G34U] | 0.351
AGUUACCACCGGGAGCUCCAGCACAGUUUAAUGGACAGAAGGGCAGAGCAA [G5A U7C G8A U10C G28U A29U] | 0.443
AGUUACCACCGGGAGCUCCAGCACAGUUGAAUGGACAGAAGGGCAGAGCAA [G5A U7C G8A U10C G28U A29G] | 2.07
AGUUACCACCGGGAGCUCCAGCACAGUUCAAUGGACAGAAGGGCAGAGCAA [G5A U7C G8A U10C G28U A29C] | 1.47
AGUUACCACCGGGAGCUCCAGCACAGUAGAAUGGACAGAAGGGCAGAGCAA [G5A U7C G8A U10C G28A A29G] | 1.02

Variant | exon inclusion enrichment index
AGUUACCACCGGGAGCUCCAGCACAGUACAAUGGACAGAAGGGCAGAGCAA [G5A U7C G8A U10C G28A A29C] | 1.44
AGUUACCACCGGGAGCUCCAGCACAGUAUAAUGGACAGAAGGGCAGAGCAA [G5A U7C G8A U10C G28A A29U] | 0.513
AGUUACCACCGGUUGCUCCAGCACAGUGAAAUGGACAGAAGGGCAGAGCAA [G5A U7C G8A U10C G13U A14U] | 1.08
AGUUACCACCGGUCGCUCCAGCACAGUGAAAUGGACAGAAGGGCAGAGCAA [G5A U7C G8A U10C G13U A14C] | 1.41
AGUUACCACCGGUGGCUCCAGCACAGUGAAAUGGACAGAAGGGCAGAGCAA [G5A U7C G8A U10C G13U A14G] | 0.535
AGUUACCACCGGGAGCUCCAGCACAAUGAAAUGGACAGAAGGGCAGAGCAA [G5A U7C G8A U10C G26A] | 3.08
AGUUACCACCGGGAGCUCCAGCACACUGAAAUGGACAGAAGGGCAGAGCAA [G5A U7C G8A U10C G26C] | 2.46
AGUUACCACCGGGAGCUCCAGCACAUUGAAAUGGACAGAAGGGCAGAGCAA [G5A U7C G8A U10C G26U] | 2.46
AGUUACCACCGGGAGCUCCAGCACAGUGAAAUGCUCAGAAGGGCAGAGCAA [G5A U7C G8A U10C G34C A35U] | 0.506
AGUUACCACCGGGAGCUCCAGCACAGUGAAAUGCGCAGAAGGGCAGAGCAA [G5A U7C G8A U10C G34C A35G] | 1.69
AGUUACCACCGGGAGCUCCAGCACAGUGAAAUGCCCAGAAGGGCAGAGCAA [G5A U7C G8A U10C G34C A35C] | 0.149
AGUUACCACCGGAAGCUCCAGCACAGUGAAAUGGACAGAAGGGCAGAGCAA [G5A U7C G8A U10C G13A] | 2.41
AGUUACCACCGGUAGCUCCAGCACAGUGAAAUGGACAGAAGGGCAGAGCAA [G5A U7C G8A U10C G13U] | 0.0615
AGUUACCACCGGCAGCUCCAGCACAGUGAAAUGGACAGAAGGGCAGAGCAA [G5A U7C G8A U10C G13C] | 1.1
AGUUACCACCGGAGGCUCCAGCACAGUGAAAUGGACAGAAGGGCAGAGCAA [G5A U7C G8A U10C G13A A14G] | 2.19
AGUUACCACCGGAUGCUCCAGCACAGUGAAAUGGACAGAAGGGCAGAGCAA [G5A U7C G8A U10C G13A A14U] | 2.87
AGUUACCACCGGACGCUCCAGCACAGUGAAAUGGACAGAAGGGCAGAGCAA [G5A U7C G8A U10C G13A A14C] | 2.98
AGUUACCACCGGGACCUCCAGCACAGUGAAAUGGACAGAAGGGCAGAGCAA [G5A U7C G8A U10C G15C] | 2.72
AGUUACCACCGGGAACUCCAGCACAGUGAAAUGGACAGAAGGGCAGAGCAA [G5A U7C G8A U10C G15A] | 2.02
AGUUACCACCGGGAUCUCCAGCACAGUGAAAUGGACAGAAGGGCAGAGCAA [G5A U7C G8A U10C G15U] | 2.27
AGUUACCACCGACAGCUCCAGCACAGUGAAAUGGACAGAAGGGCAGAGCAA [G5A U7C G8A U10C G12A G13C] | 0.711
AGUUACCACCGAAAGCUCCAGCACAGUGAAAUGGACAGAAGGGCAGAGCAA [G5A U7C G8A U10C G12A G13A] | 0.689
AGUUACCACCGAUAGCUCCAGCACAGUGAAAUGGACAGAAGGGCAGAGCAA [G5A U7C G8A U10C G12A G13U] | 0.132
AGUUACCACCGCAAGCUCCAGCACAGUGAAAUGGACAGAAGGGCAGAGCAA [G5A U7C G8A U10C G12C G13A] | 0.95
AGUUACCACCGCCAGCUCCAGCACAGUGAAAUGGACAGAAGGGCAGAGCAA [G5A U7C G8A U10C G12C G13C] | 0.397
